Reference: patent US20260232732A1 (FUNDACI INSTITUT DE RECERCA CONTRA LA LEUC MIA JOSEP …, published 2026)
Where no end group is shown, it is not given here. The star is where a group is joined. Biotin = O=C1N[C@H]2[C@H](CS[C@H]2CCCCC(=O)*)N1

T1: naked peptide IPNMADDYGS (human)
T1 peptide: IPNMADDYGS

T2: naked peptide MTPTDFTSPI (human)
T2 peptide: MTPTDFTSPI

T3: naked peptide TDFTSPIPNM (human)
T3 peptide: TDFTSPIPNM

T4: naked peptide TSPIPNMADD (human)
T4 peptide: TSPIPNMADD

T5: naked peptide MADDYGSEST (human)
T5 peptide: MADDYGSEST

T6: naked peptide DYGSESTSSM (human)
T6 peptide: DYGSESTSSM

T7: naked peptide SESTSSMEDY (human)
T7 peptide: SESTSSMEDY

T8: naked peptide TSSMEDYVNF (human)
T8 peptide: TSSMEDYVNF

T9: naked peptide SSMEDYVNFN (human)
T9 peptide: SSMEDYVNFN

T10: naked peptide SMEDYVNFNF (human)
T10 peptide: SMEDYVNFNF

T11: naked peptide MEDYVNFNFT (human)
T11 peptide: MEDYVNFNFT

T12: naked peptide YVNFNFTDFY (human)
T12 peptide: YVNFNFTDFY

T13: naked peptide FNFTDFYCEK (human)
T13 peptide: FNFTDFYCEK

T14: naked peptide TDFYCEKNNV (human)
T14 peptide: TDFYCEKNNV

T15: naked peptide YCEKNNVRQF (human)
T15 peptide: YCEKNNVRQF

T16: naked peptide KNNVRQFAS (human)
T16 peptide: KNNVRQFAS

T17: biotin-peptide MTPTDFTSPI (human, also: prints MTPTDFTSP, without I10)
T17 peptide: Biotin-MTPTDFTSPI

T18: biotin-peptide TDFTSPIPNM (human)
T18 peptide: Biotin-TDFTSPIPNM

T19: biotin-peptide TSPIPNMADD (human)
T19 peptide: Biotin-TSPIPNMADD

T20: biotin-peptide MADDYGSEST (human)
T20 peptide: Biotin-MADDYGSEST

T21: biotin-peptide DYGSESTSSM (human)
T21 peptide: Biotin-DYGSESTSSM

T22: biotin-peptide TSSMEDYVNF (human)
T22 peptide: Biotin-TSSMEDYVNF

T23: biotin-peptide SSMEDYVNFN (human)
T23 peptide: Biotin-SSMEDYVNFN

T24: biotin-peptide MEDYVNFNFT (human)
T24 peptide: Biotin-MEDYVNFNFT

T25: biotin-peptide YVNFNFTDFY (human)
T25 peptide: Biotin-YVNFNFTDFY

T26: biotin-peptide FNFTDFYCEK (human)
T26 peptide: Biotin-FNFTDFYCEK

T27: biotin-peptide TDFYCEKNNV (human)
T27 peptide: Biotin-TDFYCEKNNV

T28: biotin-peptide YCEKNNVRQF (human)
T28 peptide: Biotin-YCEKNNVRQF

T29: biotin-peptide KNNVRQFAS (human)
T29 peptide: Biotin-KNNVRQFAS


Columns and labels:
naked peptide IPNMADDYGS [1] = biological target: T1, naked peptide IPNMADDYGS; test: ELISA naked peptide; scFv 1 ug/mL; repI
Experimental: (§1) The peptides were synthesized naked or with a N-terminal Biotin modification with a purity of >98%. All four scFvs were verified by ELISA that can be detected with anti-His antibodies. ELISA was performed for scFv-peptide binding validation. Briefly, naked peptides were coated (50 μg/mL) in 0.58M carbonate-bicarbonate buffer pH9.5, 100 μL/well, 4° C. O/N. Then after blocking (3% BSA-PBS, 300 μL/well 37° C. 1.5 h) and washing (PBS+Tween-20 0.05% v/v (0.05% PBST), wells were incubated with each purified scFv antibody at concentration of 1 μg/mL in PBS at 37° C. 1 h. After washing (0.05% PBST), wells were incubated with secondary antibodies (goat anti-His IgG-HRP) in PBS, 37° C., 30 min. After washing, and incubation with TMB substrate, reactions were stopped with 2M HCl and reading was quantified at OD450.
(§2) Then a library of overlapping peptides were designed and constructed separately to produce 16 different peptides, covering full antigen sequence of total 48 aa. Peptide size was 10aa, with 7aa overlapping and ELISA screening of scFv against each peptide was performed in duplicate. Screening was performed using naked peptides in a standard plate or biotinylated peptides using avidin-plates.

naked peptide MTPTDFTSPI = biological target: T2, naked peptide MTPTDFTSPI; test: ELISA naked peptide; scFv 1 ug/mL; repII
Experimental: as §1, §2

naked peptide TDFTSPIPNM = biological target: T3, naked peptide TDFTSPIPNM; test: ELISA naked peptide; scFv 1 ug/mL; repII
Experimental: as §1, §2

naked peptide TSPIPNMADD = biological target: T4, naked peptide TSPIPNMADD; test: ELISA naked peptide; scFv 1 ug/mL; repII
Experimental: as §1, §2

naked peptide IPNMADDYGS [2] = biological target: T1, naked peptide IPNMADDYGS; test: ELISA naked peptide; scFv 1 ug/mL; repII
Experimental: as §1, §2

naked peptide MADDYGSEST = biological target: T5, naked peptide MADDYGSEST; test: ELISA naked peptide; scFv 1 ug/mL; repII
Experimental: as §1, §2

naked peptide DYGSESTSSM = biological target: T6, naked peptide DYGSESTSSM; test: ELISA naked peptide; scFv 1 ug/mL; repII
Experimental: as §1, §2

naked peptide SESTSSMEDY = biological target: T7, naked peptide SESTSSMEDY; test: ELISA naked peptide; scFv 1 ug/mL; repII
Experimental: as §1, §2

naked peptide TSSMEDYVNF = biological target: T8, naked peptide TSSMEDYVNF; test: ELISA naked peptide; scFv 1 ug/mL; repII
Experimental: as §1, §2

naked peptide SSMEDYVNFN = biological target: T9, naked peptide SSMEDYVNFN; test: ELISA naked peptide; scFv 1 ug/mL; repII
Experimental: as §1, §2

naked peptide SMEDYVNFNF = biological target: T10, naked peptide SMEDYVNFNF; test: ELISA naked peptide; scFv 1 ug/mL; repII
Experimental: as §1, §2

naked peptide MEDYVNFNFT = biological target: T11, naked peptide MEDYVNFNFT; test: ELISA naked peptide; scFv 1 ug/mL; repII
Experimental: as §1, §2

naked peptide YVNFNFTDFY = biological target: T12, naked peptide YVNFNFTDFY; test: ELISA naked peptide; scFv 1 ug/mL; repII
Experimental: as §1, §2

naked peptide FNFTDFYCEK = biological target: T13, naked peptide FNFTDFYCEK; test: ELISA naked peptide; scFv 1 ug/mL; repII
Experimental: as §1, §2

naked peptide TDFYCEKNNV = biological target: T14, naked peptide TDFYCEKNNV; test: ELISA naked peptide; scFv 1 ug/mL; repII
Experimental: as §1, §2

naked peptide YCEKNNVRQF = biological target: T15, naked peptide YCEKNNVRQF; test: ELISA naked peptide; scFv 1 ug/mL; repII
Experimental: as §1, §2

naked peptide KNNVRQFAS = biological target: T16, naked peptide KNNVRQFAS; test: ELISA naked peptide; scFv 1 ug/mL; repII
Experimental: as §1, §2

[3] = biological target: T17, biotin-peptide MTPTDFTSPI; test: ELISA biotin-peptide; scFv 10 ug/mL; repII
Experimental: as §1
(§3) ELISA with biotin-conjugated peptides (5 μg/mL) was performed very similar to described above with minor modifications.

[4] = biological target: T18, biotin-peptide TDFTSPIPNM; test: ELISA biotin-peptide; scFv 10 ug/mL; repII
Experimental: as §1, §3

[5] = biological target: T19, biotin-peptide TSPIPNMADD; test: ELISA biotin-peptide; scFv 10 ug/mL; repII
Experimental: as §1, §3

[6] = biological target: T20, biotin-peptide MADDYGSEST; test: ELISA biotin-peptide; scFv 10 ug/mL; repII
Experimental: as §1, §3

[7] = biological target: T21, biotin-peptide DYGSESTSSM; test: ELISA biotin-peptide; scFv 10 ug/mL; repII
Experimental: as §1, §3

[8] = biological target: T22, biotin-peptide TSSMEDYVNF; test: ELISA biotin-peptide; scFv 10 ug/mL; repII
Experimental: as §1, §3

[9] = biological target: T23, biotin-peptide SSMEDYVNFN; test: ELISA biotin-peptide; scFv 10 ug/mL; repII
Experimental: as §1, §3

[10] = biological target: T24, biotin-peptide MEDYVNFNFT; test: ELISA biotin-peptide; scFv 10 ug/mL; repII
Experimental: as §1, §3

[11] = biological target: T25, biotin-peptide YVNFNFTDFY; test: ELISA biotin-peptide; scFv 10 ug/mL; repII
Experimental: as §1, §3

[12] = biological target: T26, biotin-peptide FNFTDFYCEK; test: ELISA biotin-peptide; scFv 10 ug/mL; repII
Experimental: as §1, §3

[13] = biological target: T27, biotin-peptide TDFYCEKNNV; test: ELISA biotin-peptide; scFv 10 ug/mL; repII
Experimental: as §1, §3

[14] = biological target: T28, biotin-peptide YCEKNNVRQF; test: ELISA biotin-peptide; scFv 10 ug/mL; repII
Experimental: as §1, §3

biotin-peptide KNNVRQFAS = biological target: T29, biotin-peptide KNNVRQFAS; test: ELISA biotin-peptide; scFv 10 ug/mL; repII
Experimental: as §1, §3

OD450 (naked peptide IPNMADDYGS [1]) [OD] | OD450 (naked peptide MTPTDFTSPI) [OD] | OD450 (naked peptide TDFTSPIPNM) [OD] | OD450 (naked peptide TSPIPNMADD) [OD] | OD450 (naked peptide IPNMADDYGS [2]) [OD] | OD450 (naked peptide MADDYGSEST) [OD] | OD450 (naked peptide DYGSESTSSM) [OD] | OD450 (naked peptide SESTSSMEDY) [OD] | OD450 (naked peptide TSSMEDYVNF) [OD] | OD450 (naked peptide SSMEDYVNFN) [OD] | OD450 (naked peptide SMEDYVNFNF) [OD] | OD450 (naked peptide MEDYVNFNFT) [OD] | OD450 (naked peptide YVNFNFTDFY) [OD] | OD450 (naked peptide FNFTDFYCEK) [OD] | OD450 (naked peptide TDFYCEKNNV) [OD] | OD450 (naked peptide YCEKNNVRQF) [OD] | OD450 (naked peptide KNNVRQFAS) [OD] | OD450 [3] [OD] | OD450 [4] [OD] | OD450 [5] [OD] | Binder | also measured
0.02 | 0.03 | 0.05 | 0.02 | 0.02 | 0.02 | 0.02 | 0.02 | 0.03 | 0.09 | 0.03 | 0.04 | 0.01 | 0.03 | 0.03 | 0.07 | 0.04 | 0.1 | 0.12 | 0.05 | Comparative antibody 2 (Comp-2) scFv, 243LO326 (VH SEQ ID NO: 51 and VL SEQ ID NO: 52 of WO 2022/195028 A2), His-tagged (scFv) scFv: QVQLVQSGAEVKKPGASVKVSCKASGYTFTSYWMHWVRQAPGQGLEWIGVIYPGNSDTRYNQKFKGRVTITRDTSASTAYMELSSLRSEDTAVYYCTRDYYSNYVYYYAMDYWGQGTTVTVSSGGGGSGGGGSGGGGSGGGGSDIVMTQTPLSLPVTPGEPASISCRSSQSLVHPNRNTYLHWYLQKPGQSPQLLIYKVSNRFSGVPDRFSGSGSGTDFTLKISRVEAEDVGVYYCSQSTHVPWTFGQGTKLEIKHHHHHH | OD450 [6]: 0.09 OD; OD450 [7]: 0.09 OD; OD450 [8]: 0.06 OD; OD450 [9]: 0.1 OD; OD450 [10]: 0.08 OD; OD450 [11]: 2.06 OD; OD450 [12]: 1.35 OD; OD450 [13]: 0.05 OD; OD450 [14]: 0.1 OD; OD450 (biotin-peptide KNNVRQFAS): 0.07 OD
0.02 | 0.04 | 0.08 | 0.04 | 0.04 | 0.04 | 0.03 | 0.04 | 0.03 | 0.08 | 0.07 | 0.06 | 0.01 | 0.07 | 0.04 | 0.03 | 0.04 | 0.13 | 0.11 | 1.69 | Comparative antibody 3 (Comp-3) scFv, SR_92R (Somovilla-Crespo et al. 2018), His-tagged (scFv) scFv: EVKLEESGGGLVQPGGSMKLSCVASGFTFNKFWMNWVRQSPEKGLEWVAEIRLKSNNYATHYAESVKGRFTISRDDSKSSVYLQMNNLRAEDTGIYYCASDGWFAYWGQGTLVTVSAGGGGSGGGGSGGGGSGGGGSDVVMTQTPLSLPVSLGDQASISCRSSQSLVHSNGNTYLNWCLQRPGQSPKSLIYKVSNRFSGVPDRFSGSGSGTDFTLKISRVEAEDLGVYFCSQSTHFPRTFGGGTKLEIKRHHHHHH | OD450 [6]: 0.13 OD; OD450 [7]: 0.1 OD; OD450 [8]: 0.12 OD; OD450 [9]: 0.12 OD; OD450 [10]: 0.11 OD; OD450 [11]: 0.13 OD; OD450 [12]: 0.07 OD; OD450 [13]: 0.09 OD; OD450 [14]: 0.09 OD; OD450 (biotin-peptide KNNVRQFAS): 0.08 OD
